Measured values published in the supplement of paper PMC9112550, “Optimization of the antimicrobial peptide Bac7 by deep mutational scanning” (BMC Biology, 2022).

system: Escherichia coli TOP10; experiment: shrunken log2 fold change of peptide-encoding DNA abundance (4.5 h post-induction vs induction); higher = less antimicrobial activity (less host growth inhibition); conditions: time post-induction: 4.5 h; library: site-saturation at positions 5, 18, 19, 20
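Further: peptides expressed intracellularly from a pBAD plasmid library in pooled LB shake-flask culture, induced with 0.3% L-arabinose, DNA abundance read by NGS, three biological replicates, DESeq2 with apeglm shrinkage.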

Sequence | shrunken log2 fold change
RRIRERPPRLPRPRPRPLCTPRP | -0.364
RRIRSRPPRLPRPRPRPRNIPRP | -0.28
RRIRFRPPRLPRPRPRPAFNPRP | -0.367
RRIRQRPPRLPRPRPRPYSWPRP | 0.0415
RRIRTRPPRLPRPRPRPWIAPRP | -0.0119
RRIRCRPPRLPRPRPRPKKQPRP | 0.155
RRIRFRPPRLPRPRPRPEWEPRP | 0.00489
RRIRGRPPRLPRPRPRPEQVPRP | 0.995
RRIRKRPPRLPRPRPRPWHSPRP | 0.0422
RRIRGRPPRLPRPRPRPWLVPRP | 0.422
RRIRARPPRLPRPRPRPIMLPRP | -0.43
RRIRSRPPRLPRPRPRPRMDPRP | -0.291
RRIRERPPRLPRPRPRPPNTPRP | -0.284
RRIRNRPPRLPRPRPRPVSFPRP | 0.0749
RRIRFRPPRLPRPRPRPYNEPRP | -0.812
RRIRHRPPRLPRPRPRPVHNPRP | 0.154
RRIRHRPPRLPRPRPRPQECPRP | -0.0126
RRIRHRPPRLPRPRPRPIFLPRP | -0.572
RRIRCRPPRLPRPRPRPHTCPRP | 0.0253
RRIRRRPPRLPRPRPRPLWMPRP | 0.0635
RRIRERPPRLPRPRPRPFLVPRP | -0.119
RRIRKRPPRLPRPRPRPIRDPRP | -0.016
RRIRPRPPRLPRPRPRPDTSPRP | -0.738
RRIRQRPPRLPRPRPRPFYDPRP | -0.208
RRIRWRPPRLPRPRPRPSNFPRP | -0.391

Sequence | shrunken log2 fold change
RRIRFRPPRLPRPRPRPHDHPRP | -0.508
RRIRDRPPRLPRPRPRPWCNPRP | -0.378
RRIRTRPPRLPRPRPRPCFDPRP | -0.0899
RRIRWRPPRLPRPRPRPSNMPRP | -0.923
RRIRMRPPRLPRPRPRPHTSPRP | 0.242
RRIRKRPPRLPRPRPRPIKIPRP | -0.149
RRIRDRPPRLPRPRPRPWIGPRP | 0.0362
RRIRWRPPRLPRPRPRPGKYPRP | -0.227
RRIRYRPPRLPRPRPRPDAPPRP | -0.0708
RRIRHRPPRLPRPRPRPRKSPRP | 0.119
RRIRWRPPRLPRPRPRPTHGPRP | -0.0242
RRIRSRPPRLPRPRPRPCNEPRP | -1.09
RRIRERPPRLPRPRPRPPAVPRP | 0.349
RRIRQRPPRLPRPRPRPIRVPRP | -0.00674
RRIRDRPPRLPRPRPRPNRHPRP | -0.327
RRIRGRPPRLPRPRPRPVTHPRP | 0.106
RRIRLRPPRLPRPRPRPDVHPRP | -0.186
RRIRLRPPRLPRPRPRPGNWPRP | 0.0269
RRIRARPPRLPRPRPRPVFGPRP | 0.353
RRIRARPPRLPRPRPRPKKMPRP | -0.0239
RRIRTRPPRLPRPRPRPVVCPRP | 0.0187
RRIRWRPPRLPRPRPRPAHQPRP | 0.176
RRIRVRPPRLPRPRPRPEDVPRP | 0.0203
RRIRCRPPRLPRPRPRPWQCPRP | -0.0231
RRIRRRPPRLPRPRPRPSIAPRP | 0.238

Sequence | shrunken log2 fold change
RRIRSRPPRLPRPRPRPAPLPRP | 0.163
RRIRERPPRLPRPRPRPKPTPRP | 0.148
RRIRRRPPRLPRPRPRPDPTPRP | 0.77
RRIRARPPRLPRPRPRPIHGPRP | -0.208
RRIRYRPPRLPRPRPRPLPEPRP | -0.323
RRIRWRPPRLPRPRPRPGAAPRP | 1.06
RRIRWRPPRLPRPRPRPNLPPRP | -0.101
RRIRQRPPRLPRPRPRPAQKPRP | -0.0027
RRIRPRPPRLPRPRPRPWQIPRP | 0.452
RRIRHRPPRLPRPRPRPVNMPRP | -0.00401
RRIRCRPPRLPRPRPRPGIAPRP | 0.201
RRIRCRPPRLPRPRPRPRFSPRP | -0.289
RRIRTRPPRLPRPRPRPGNTPRP | -0.0393
RRIRHRPPRLPRPRPRPLMNPRP | -0.642
RRIRHRPPRLPRPRPRPTHPPRP | 0.155
RRIRFRPPRLPRPRPRPAYYPRP | -0.227
RRIRMRPPRLPRPRPRPLDVPRP | 0.287
RRIRRRPPRLPRPRPRPYSIPRP | 0.0088
RRIRCRPPRLPRPRPRPLPKPRP | 0.258
RRIRCRPPRLPRPRPRPPECPRP | 0.131
RRIRERPPRLPRPRPRPFVGPRP | -0.143
RRIRWRPPRLPRPRPRPTPTPRP | 0.22
RRIRPRPPRLPRPRPRPKDEPRP | 0.363
RRIRLRPPRLPRPRPRPWKVPRP | 0.0854
RRIRGRPPRLPRPRPRPQENPRP | 0.462
